Experimental findings from IntAct's records for PubMed 21847091 are described below.

B1: Abscisic acid receptor PYR1 (Arabidopsis thaliana (Mouse-ear cress)), O49686 (parent)
chain: MPSELTPEERSELKNSIAEFHTYQLDPGSCSSLHAQRIHAPPELVWSIVRRFDKPQTYKHFIKSCSVEQNFEMRVGCTRDVIVISGLPANTSTERLDILDDERRVTGFSIIGGEHRLTNYKSVTTVHRFEKENRIWTVVLESYVVDMPEGNSEDDTRMFADTVVKLNLQKLATVAEAMARNSGDGSGSQVT

In this test the parent is B1. Particulars: with HAB1, Q9CAJ0.
Chain of HAB1, Q9CAJ0 (Q9CAJ0 whole entry): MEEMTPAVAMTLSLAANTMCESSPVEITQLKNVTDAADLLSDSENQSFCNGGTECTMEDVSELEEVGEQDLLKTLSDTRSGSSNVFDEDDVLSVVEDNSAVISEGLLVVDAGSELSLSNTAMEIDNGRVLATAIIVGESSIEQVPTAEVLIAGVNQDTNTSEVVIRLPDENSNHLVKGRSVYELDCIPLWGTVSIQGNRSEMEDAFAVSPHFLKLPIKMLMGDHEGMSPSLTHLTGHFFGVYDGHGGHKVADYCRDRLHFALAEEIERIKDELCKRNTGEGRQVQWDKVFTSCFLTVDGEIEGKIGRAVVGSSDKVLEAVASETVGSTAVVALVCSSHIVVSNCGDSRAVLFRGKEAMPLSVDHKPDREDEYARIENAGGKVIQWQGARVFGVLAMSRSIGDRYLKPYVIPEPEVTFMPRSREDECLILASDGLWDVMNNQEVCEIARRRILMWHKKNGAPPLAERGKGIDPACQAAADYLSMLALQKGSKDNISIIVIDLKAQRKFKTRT
Consider MPSELTPEERSELKNSIAEFHTYQLDPGSCSSLHAQRIHAPPELVWSIVRRFDKPQTYKPFIKSCSVEQNFEMRVGCTRDVIVISGLPANTSTERLDILDDERRVTGFSIIGGEHRLTNYKSVTTVHRFEKENRIWTVVLESYVVDMPEGNSEDDTRMFADTVVKLNLQKLATVAEAMARNSGDGSGSQVT [H60P], for which the “effect of a mutation on the interaction” value is “increasing interaction”.
